Laboratory results reported in the nanobody polyreactivity screen of Harvey et al. (2022).

Test: yeast display, Sf9 membrane polyspecificity reagent, FACS + sequencing; frameworks hold sequencing errors
How it was run: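 Polyreactivity labels are assigned by the sorting gate from which each nanobody was recovered. The gates were low and high (top ~1%), set on anti-HA fluorescence for expression and streptavidin fluorescence for reagent binding. Before sorting, galactose-induced (36–48 hours) yeast display cells were stained for 1 hour at 4 °C with 10% biotinylated, detergent-solubilized Sf9 membrane reagent.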
With “QVQLVESGGGLVQAGGSLRLSCAASGRIFHGYAMGWYRQAPGKERELVGAINSSGGSTYYADSVKGRFTISRDNAKNTVYLQMNSLKPQDTAVYYCAADWVVSGNNPTVDTYFWYEYWGQGTQVTVSS” the “polyreactivity (PSR sort gate)” value was “low polyreactivity”.
In the case of “QVQLVESGGGLVQAGGSLRLSCAASGRIFHIYAMGWYRQAPGKERELVAAISSDGSTYYADSVKGRFTISRDNAKNTVYLQMNSLKPEDTAVYYCAVESPQGRQCYEYWGQGTQVTVSS”, the “polyreactivity (PSR sort gate)” value is reported as “low polyreactivity”.
In the case of “QVQLVESGGGLVQAGGSLRLSCAASGRIFHLYAMGWYRQAPGKERELVATITYDGGSTYYADSVKGRFTISRDNAKDTVYLQMNSLKPEDTAVYYCASPSPHVGLKWEYDYWGQGTQVTVSS”, the “polyreactivity (PSR sort gate)” value is reported as “low polyreactivity”.
With “QVQLVESGGGLVQAGGSLRLSCAASGRIFHNNAMGWYIQAPGKERELVAAISTGGSTNYADSVKGRFTISRDNAKNTVYLQMNSLKPEDTAVYYCAADHPVTYPTSKFDYWGQGTQVTVSS” the “polyreactivity (PSR sort gate)” value was “low polyreactivity”.
For “QVQLVESGGGLVQAGGSLRLSCAASGRIFHSYAMGWYRQAPGKERELVAAISSGGNTYYADSVKGRFTISRDNAKNTVYLQMNSLKREDTAVYYCARDWDFLYDGFHSDSYEYWGQGTQVTVSS”, the “polyreactivity (PSR sort gate)” value was “low polyreactivity”.
In the case of “QVQLVESGGGLVQAGGSLRLSCAASGRIFHYAIGWYRQAPGKESELVAGISKRGGSTYYADSVKGRFTISRDNAKNTVYLQMNSLKPEDTAVYYCSKEHYWTLNGLTSYYWGQGSQVTVSS”, the “polyreactivity (PSR sort gate)” value is reported as “high polyreactivity”.
For “QVQLVESGGGLVQAGGSLRLSCAASGRIFIIYAMGWYRQAPGKERELVAAITSGGGSTRYADSVKGRFPISRDNAKNTVYLQMNSLKPEDTAVYYCAAARITRGRRYDYWGQGTQVTVSS”, the “polyreactivity (PSR sort gate)” value was “high polyreactivity”.
For “QVQLVESGGGLVQAGGSLRLSCAASGRIFIVNAMGWYRQAPGKERELVAAISYRGGSTYYADSVKGRFTISRDNAKNTVYLQMNSLKPEDTAVYYCNTDGYIYRYRFDYWGQGTQVTVSS”, the “polyreactivity (PSR sort gate)” value was “low polyreactivity”.
In the case of “QVQLVESGGGLVQAGGSLRLSCAASGRIFIWYAMGWYRQAPGKERELVAAIDRSGASTYYADSVKGRFTISRDNAKNTVYLQMNSLKPEDTAVYYCAARRDVLWFQYPYGYWGQGTQVTVSS”, the “polyreactivity (PSR sort gate)” value is reported as “low polyreactivity”.
In the case of “QVQLVESGGGLVQAGGSLRLSCAASGRIFIWYTMGWYRQAPGNERELVASITGGGGSTYYADSVKGRFTISRDNAKNTVYFQMNSLKPEETAVYDCNAVYRRRYDYWGQGTQVTVSS”, the “polyreactivity (PSR sort gate)” value is reported as “high polyreactivity”.
In the case of “QVQLVESGGGLVQAGGSLRLSCAASGRIFKANDMGWYRQAPGKERELVAITSSDSTNYADSVKGRFTISRDNAKNTVYLQMNSLKPEDTAVYYCAALSYYYSDRMDYWGQGTQVTVSS”, the “polyreactivity (PSR sort gate)” value is reported as “low polyreactivity”.
With “QVQLVESGGGLVQAGGSLRLSCAASGRIFKDTAMGWYRQAPGKDRELVAGITSIGDNTYYADSVKGRFTISRDNAKNTVYLQMHSLKPEDSAVYDCNALYPYVNGTVPRTTGEYDYWGQGTQVTVSS” the “polyreactivity (PSR sort gate)” value was “low polyreactivity”.
With “QVQLVESGGGLVQAGGSLRLSCAASGRIFKFNAMGWYRPAPGKERELVAAITTGGGSTYYADSVKGRFTISRDNAKNTVYLQMNSLKPEDSAVYYCATDRRHVYSSRRYYYWVQGTQVTVSS” the “polyreactivity (PSR sort gate)” value was “high polyreactivity”.
For “QVQLVESGGGLVQAGGSLRLSCAASGRIFKFNAMGWYRQAPGKERELVAATWSGGRTSYADSVKGRFTISRDNAKNTVYLQMNSLKPEDTAVYYCNAADWIVVQYDYWGQGTQVTVSS”, the “polyreactivity (PSR sort gate)” value was “low polyreactivity”.
With “QVQLVESGGGLVQAGGSLRLSCAASGRIFKFNAMGWYRQAPGKVRELVAATWSGGRTSYADSVKGRFTISRDNAKNTVYLQMNSLKPEDTAVYYCNAADWIDVQYDYGGQGTQVTVSS” the “polyreactivity (PSR sort gate)” value was “low polyreactivity”.
With “QVQLVESGGGLVQAGGSLRLSCAASGRIFKGYAMGWYRQAPGKERELVAAITWRGGTTYYADSVKGRFTISRDNAKNTVYLQMNSLKPEDTAVYYCAAVTRRYVLSTFYYWGQGTQVTVSS” the “polyreactivity (PSR sort gate)” value was “high polyreactivity”.
For “QVQLVESGGGLVQAGGSLRLSCAASGRIFKGYVMGWYRQAPGKERELVAAISKSGGRTYYADPVKGRFTISRDNAKNTVYLQMNSLKPEDTAVYYCNAVGVVTYSFYYWGQGTQVTVSS”, the “polyreactivity (PSR sort gate)” value was “high polyreactivity”.
With “QVQLVESGGGLVQAGGSLRLSCAASGRIFKHYAMGWSRQAPGKERELVAAITNGGRTNYADSVKGRFTISRDNAKNTVYLQMNSLKPADTAVYYGNSESSPPYSITKFDYWGQGTQVTVSS” the “polyreactivity (PSR sort gate)” value was “low polyreactivity”.
For “QVQLVESGGGLVQAGGSLRLSCAASGRIFKINAMGWSRQAPGKERDLVATISYSAGRTYYADSEKGRFTISRDSAKNTVYLQMNSLKPEDTAVYYCAARISSYWPYSLLDYWGQGTQVTVSS”, the “polyreactivity (PSR sort gate)” value was “high polyreactivity”.
For “QVQLVESGGGLVQAGGSLRLSCAASGRIFKIYSMGWYRQAPGKERELVAAISYRGTSTYYADSVKGRFTISRDNAKNTVYLQMNSLKPEDTAVYYCARRDTYTRYYWGQGTQVTVSS”, the “polyreactivity (PSR sort gate)” value was “high polyreactivity”.
In the case of “QVQLVESGGGLVQAGGSLRLSCAASGRIFKLYAMGWYRQAPGKERELVAAISTSGGSTYYADSVKGRFTISRDNAKNTVYLQMNSLKPEDTAVFYCAADPLSGYDYWGQGTQVTVSS”, the “polyreactivity (PSR sort gate)” value is reported as “high polyreactivity”.
For “QVQLVESGGGLVQAGGSLRLSCAASGRIFKNNAMGWYRQAPGKERELVAVISGSGGSTYADSVKGRFTISRDNAKNTVYLQLNSLKPADTAVYYCAASRYYRIWYSLLQGYDYWGQGTQVTVSS”, the “polyreactivity (PSR sort gate)” value was “high polyreactivity”.
With “QVQLVESGGGLVQAGGSLRLSCAASGRIFKNYVMGWYRQAPGKERELVAAITYSGGSTRYADSVKGRFTISRDNAKNTVYLQMNSLKPEDTAVYYCAASRTYYRTYTFYYWGQGTQVTVSS” the “polyreactivity (PSR sort gate)” value was “high polyreactivity”.
With “QVQLVESGGGLVQAGGSLRLSCAASGRIFKPNAMGWYRQAPVKEREFVARITRNTGSTYYADSVKGRFTISRDNAKNTVYLQMNSLKPEDTAVYYCAAGAPSYYYYWGQGTQVTVSS” the “polyreactivity (PSR sort gate)” value was “high polyreactivity”.
In the case of “QVQLVESGGGLVQAGGSLRLSCAASGRIFKPYVMGWYRQAPGKERELGAAISWGGGRTYYADSVKGRFTISRDNAKNTVYLQMNSLKPEDTAVYYCAAPRRFDYDWGQGTQVTVSS”, the “polyreactivity (PSR sort gate)” value is reported as “low polyreactivity”.
For “QVQLVESGGGLVQAGGSLRLSCAASGRIFKPYVMGWYRQAPGKERELVAAITRGGSTNYADSVKGRFTISRDNAKNTVYLQMNSLKPEDTAVYDCAVYYYGTWGWDDYWGQGTQVTVSS”, the “polyreactivity (PSR sort gate)” value was “high polyreactivity”.
With “QVQLVESGGGLVQAGGSLRLSCAASGRIFKQYTMGWYRQAPGKERELVAAITSSGAGTFYADSVKGRFTISRDNAKNTVYLQMNSLKPEDTAVDYCAAAYYYASRMDYWGQGTQVTVSS” the “polyreactivity (PSR sort gate)” value was “high polyreactivity”.
In the case of “QVQLVESGGGLVQAGGSLRLSCAASGRIFKRNTMGWYRQAPGKERELVAAITYSGITYYADSVKGRFTISRDNAKNTVYLQMNSLKPEDTAVYYCAKVLYPIGSPRFEYWGQGTQVTVSS”, the “polyreactivity (PSR sort gate)” value is reported as “low polyreactivity”.
In the case of “QVQLVESGGGLVQAGGSLRLSCAASGRIFKSNAMGWYRQAPGKERELVASISRSGSTNYADSVKGRFTISRDNAKNTVYLQMNSLKPEDTAVYYCAKDPDAKGGGYDYWGQGTQVTVSS”, the “polyreactivity (PSR sort gate)” value is reported as “low polyreactivity”.
With “QVQLVESGGGLVQAGGSLRLSCAASGRIFKSNAMGWYRQAPGKERELVASITASGGRTYYADSVKGRFTISRDNAKNTVYLQMNSLKPEDTAVYYCAAGRPFSKYGYWGQGTQVTVSS” the “polyreactivity (PSR sort gate)” value was “high polyreactivity”.
